Usually Kd stands for the equilibrium constant for the complex coming apart.

First the molecules themselves.
B5: non-tagged Net4ΔC (gift from the Koch lab) (domain or fragment, mouse)
chain: CEKACNPRMGNLALGRKLRADTMCGQNATELFCFYSENADLTCRQPKCDKCNAAHSHLAHPPSAMADSSFRFPRTWWQSAEDVHREKIQLDLEAEFYFTHLIMVFKSPRPAAMVLDRSQDFGKTWKPYKYFATNCSATFGLEDDVVKKGAICTSRYSNPFPCTGGEVIFRALSPPYDIENPYSAKVQEQLKITNLRVRLLKRQSCPCQINDLNAKPHHFMHYAVYDFIVKGSCFCNGHADQCLPVEGFRPIKAPGAFHVVHGRCMCKHNTAGSHCQHCAPLYNDRPWEAADGRTGAPNECRTCKCNGHADTCHFDVNVWEASGNRSGGVCNNCQHNTEGQHCQRCKPGFYRDLRRPFSAPDACKACSCHPVGSAILPFSSVTFCDPSNGDCPCKPGVAGPHCDRCMVGYWGFGDYGCRPCDCAGSCDPLTGDC

Test in all cases: ELISA
The target in experiment [1] is non-tagged Net4ΔC (gift from the Koch lab) (mouse) (UniProt Q9JI33).
The target in experiment [2] is B5.
In experiment [3] the target is recombinant mouse laminin 111 (Lm111) (mouse, UniProt P19137 25-3083; P02469 22-1786; P02468 34-1607).

Regarding “γ1ΔC D285R (from UniProt P11047 37-341) (domain or fragment)”, the Kd in experiment [1] came out at 1.57 nM.

B1: γ1ΔC D266R (domain or fragment)
chain: QAAMDECTDEGGRPQRCMPEFVNAAFNVTVVATNTCGTPPEEYCVQTGVTGVTKSCHLCDAGQPHLQHGAAFLTDYNNQADTTWWQSQTMLAGVQYPSSINLTLHLGKAFDITYVRLKFHTSRPESFAIYKRTREDGPWIPYQYYSGSCENTYSKANRGFIRTGGDEQQALCTDEFSDISPLTGGNVAFSTLEGRPSAYNFDNSPVLQEWVTATDIRVTLNRLNTFGDEVFNRPKVLKSYYYAISDFAVGGRCKCNGHASECMKNEFDKLVCNCKHNTYGVDCEKCLPFFNDRPWRRATAESASECLP
Turning to B1, binding in experiment [2] was put at a Kd of 4 ± 0.4 nM.

B2: γ1ΔC R149E (domain or fragment)
chain: QAAMDECTDEGGRPQRCMPEFVNAAFNVTVVATNTCGTPPEEYCVQTGVTGVTKSCHLCDAGQPHLQHGAAFLTDYNNQADTTWWQSQTMLAGVQYPSSINLTLHLGKAFDITYVELKFHTSRPESFAIYKRTREDGPWIPYQYYSGSCENTYSKANRGFIRTGGDEQQALCTDEFSDISPLTGGNVAFSTLEGRPSAYNFDNSPVLQEWVTATDIRVTLNRLNTFGDEVFNDPKVLKSYYYAISDFAVGGRCKCNGHASECMKNEFDKLVCNCKHNTYGVDCEKCLPFFNDRPWRRATAESASECLP
Take B2: in experiment [2], binding was put at a Kd of 1.89 ± 0.2 nM.

B3: γ1ΔC Y147R (domain or fragment)
chain: QAAMDECTDEGGRPQRCMPEFVNAAFNVTVVATNTCGTPPEEYCVQTGVTGVTKSCHLCDAGQPHLQHGAAFLTDYNNQADTTWWQSQTMLAGVQYPSSINLTLHLGKAFDITRVRLKFHTSRPESFAIYKRTREDGPWIPYQYYSGSCENTYSKANRGFIRTGGDEQQALCTDEFSDISPLTGGNVAFSTLEGRPSAYNFDNSPVLQEWVTATDIRVTLNRLNTFGDEVFNDPKVLKSYYYAISDFAVGGRCKCNGHASECMKNEFDKLVCNCKHNTYGVDCEKCLPFFNDRPWRRATAESASECLP
Take B3: in experiment [2], the Kd was 2.28 ± 0.43 nM.

B4: γ1ΔC (N-terminal fragment of laminin γ1), human, C-terminally flag-tagged (domain or fragment)
chain: QAAMDECTDEGGRPQRCMPEFVNAAFNVTVVATNTCGTPPEEYCVQTGVTGVTKSCHLCDAGQPHLQHGAAFLTDYNNQADTTWWQSQTMLAGVQYPSSINLTLHLGKAFDITYVRLKFHTSRPESFAIYKRTWEDGPWIPYQYYSGSCENTYSKANRGFIRTGGDEQQALCTDEFSDISPLTGGNVAFSTLEGRPSAYNFDNSPVLQEWVTATDISVTLNRLNTFGDEVFNDPKVLKSYYYAISDFAVGGRCKCNGHASECMKNEFDKLVCNCKHNTYGVDCEKCLPFFNDRPWRRATAESASECLPCDCNGRSQECYFDPELYRSTGHGGHCTNCQDNTDGAHCERCRENFFRLGNNEACSSCHCSPVGSLSTQCDSYGRCSCKPGVMGDKCDRCQPGFHSLTEAGCRPCSCDPSGSIDECNIETGRCVCKDNVEGFNCERCKPGFFNLESSNPRGCTP
modifications: N-glycans at N60 and N134
Molecule B4 registered a Kd in experiment [2] of 2.93 ± 0.51 nM.
For the molecule B5, the Kd in experiment [3] amounted to 0.39 ± 0.07 nM.

Source of the values: publication PMC12328585 (Nature Communications, 2025).
